Assay results reported in article PMC4516155 (FASEB journal : official publication of the Federation of …, 2013).

T1: GST-FE65 PTB1 (bacterially expressed) (UniProt O00213 361-514)
T1 sequence (looked up): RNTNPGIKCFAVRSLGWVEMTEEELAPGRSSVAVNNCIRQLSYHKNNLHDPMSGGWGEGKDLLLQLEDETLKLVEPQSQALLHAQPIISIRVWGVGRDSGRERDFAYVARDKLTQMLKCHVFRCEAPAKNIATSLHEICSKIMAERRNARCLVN

T2: GST-FE65 PTB1 (mammalian, pCIneo-GST-FE65 PTB1) (human, UniProt O00213 361-514)
T2 sequence (looked up): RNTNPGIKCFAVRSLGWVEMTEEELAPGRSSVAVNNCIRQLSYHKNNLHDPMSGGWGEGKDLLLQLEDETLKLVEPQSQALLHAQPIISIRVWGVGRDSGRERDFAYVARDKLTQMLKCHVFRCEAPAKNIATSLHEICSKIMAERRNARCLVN


Columns and labels:
[1] = target: T1, GST-FE65 PTB1 (bacterially expressed); test: pull-down
[2] = target: T2, GST-FE65 PTB1 (mammalian, …); test: pull-down

Row | Binder | percent of input pulled down [1] [%] | percent of input pulled down [2] [%]
1 | Myc/His-tagged wild-type ARF6 (natural protein, UniProt P62330 1-175, looked up) MGKVLSKIFGNKEMRILMLGLDAAGKTTILYKLKLGQSVTTIPTVGFNVETVTYKNVKFNVWDVGGQDKIRPLWRHYYTGTQGLIFVVDCADRDRIDEARQELHRIINDREMRDAIILIFANKQDLPDAMKPHEIQEKLGLTRIRDRNWYVQPSCATSGDGLYEGLTWLTSNYKS | 12 | 
2 | Myc/His-tagged ARF6 Q67L (natural protein, UniProt P62330 1-175, looked up) MGKVLSKIFGNKEMRILMLGLDAAGKTTILYKLKLGQSVTTIPTVGFNVETVTYKNVKFNVWDVGGLDKIRPLWRHYYTGTQGLIFVVDCADRDRIDEARQELHRIINDREMRDAIILIFANKQDLPDAMKPHEIQEKLGLTRIRDRNWYVQPSCATSGDGLYEGLTWLTSNYKS | 0.7 | 2
3 | Myc/His-tagged ARF6 T27N (natural protein, UniProt P62330 1-175, looked up) MGKVLSKIFGNKEMRILMLGLDAAGKNTILYKLKLGQSVTTIPTVGFNVETVTYKNVKFNVWDVGGQDKIRPLWRHYYTGTQGLIFVVDCADRDRIDEARQELHRIINDREMRDAIILIFANKQDLPDAMKPHEIQEKLGLTRIRDRNWYVQPSCATSGDGLYEGLTWLTSNYKS | 27 | 23
